Molecular target: angiotensin AT1 receptor (on human umbilical vein endothelial cells) (human) (UniProt P30556)
Test: cell-based or functional assay

UniProt P30556, sequence (P30556 whole entry): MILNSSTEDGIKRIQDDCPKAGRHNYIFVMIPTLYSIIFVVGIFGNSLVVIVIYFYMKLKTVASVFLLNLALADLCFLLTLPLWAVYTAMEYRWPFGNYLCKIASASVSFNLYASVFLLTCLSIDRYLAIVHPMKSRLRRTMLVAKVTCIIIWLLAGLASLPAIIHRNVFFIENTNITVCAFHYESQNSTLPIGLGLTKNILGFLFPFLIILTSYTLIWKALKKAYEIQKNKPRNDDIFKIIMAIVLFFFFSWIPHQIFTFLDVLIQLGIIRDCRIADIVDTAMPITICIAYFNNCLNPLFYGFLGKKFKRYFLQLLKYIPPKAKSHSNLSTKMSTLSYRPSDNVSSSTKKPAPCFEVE

Question: Which release of PGE2 and PGI2 from HUVEC (effective concentration of DAA-I) does the source give for “des-aspartate-angiotensin I (from UniProt P01019 26-34) (peptide)” here?
Answer: 100 pM

From patent US20170274038A1
